In patent US20250230234A1 (Sanofi, published 2025):
Several values for one entry are separate records, joined by “and”; a condition that tells them apart may be missing. Identical values can stand only once.

How the values were obtained:
[1] = target: T1, human GPRC5D (full length, on cells) (human, UniProt Q9NZD1 1-345); test: FACS on MM.1R cells (GPRC5D-positive), serial antibody dilution, goat anti-human IgG A488 secondary antibody, median fluorescence intensity
T1 construct: also called huGPRC5D; hGPRC5D
Protocol: (§1) FACS analyses were performed to determine the ability of the ADCC-enhanced antibodies to bind to cells that express GPRC5D on their surface.
(§2) Analyses were performed with Forecyt® Software. Cells were first gated in FSC (forward scatter)/SSC (side scatter). From the resulting cell population, single live cells were gated. Binding was analyzed as median fluorescence intensity (MFI) of the secondary antibody. Curves and apparent KD (“AppKD”) calculations were generated using GraphPad Prism Software (FIG. 2).

[2] = target: T2, huFcγRIIa_R167 (human, UniProt P12318 36-218, limits assumed); test: SPR Biacore T200, receptor captured by anti-His, single cycle kinetics
T2 construct: also called huFcγRIIA R167 polymorph
T2 sequence (looked up): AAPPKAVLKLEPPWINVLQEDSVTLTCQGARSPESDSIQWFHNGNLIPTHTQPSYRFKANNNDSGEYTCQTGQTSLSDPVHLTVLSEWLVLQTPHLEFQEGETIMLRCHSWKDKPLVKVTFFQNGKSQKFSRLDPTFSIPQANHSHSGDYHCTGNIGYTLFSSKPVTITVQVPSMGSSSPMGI

[3] = target: T1, human GPRC5D (full length, on cells); test: cell-based or functional assay
[4] = target: T1, human GPRC5D (full length, on cells); test: cell-based or functional assay; remark: listed apart in the source
[5] = target: T3, huFcγRIIIa_V158 (human, UniProt P08637 17-208); test: SPR Biacore T200, receptor captured by anti-His, single cycle kinetics, mean of two
T3 construct: Recombinant receptor captured on the SPR chip through anti-His antibodies; V at position 158 (mature numbering, as the name says); also called human FcγRIIIa V158 polymorph; CD16a
Protocol: (§3) The interaction of the antibodies with human Fc receptors was analysed by SPR using a Biacore™ T200 instrument in the following test conditions: [0242] Immobilization of anti-His antibodies on a CM5 sensor chip via amine coupling for seven Fcγ receptors: huFcγRI, huFcγRIIa_H131, huFcγRIIa_R131, huFcγRIIb/c, huFcγRIIIa_V158, huFcγRIIIa_F158, huFcγRIIIb, or use of biotin CAPture for the huFcRn analysis [0243] Capture of each of the Fc receptors [0244] Affinity constant determination by single cycle kinetics (SCK) at concentrations ranging from 0.6 nM to 2000 nM [0245] Interaction with huFcRn was studied at pH5.9 and pH7.4

[6] = target: T2, huFcγRIIa_R167; test: as above
Protocol: as §3

[7] = target: T4, huFcγRI (human, UniProt P12314 16-288); test: as above
T4 construct: also called human FcγRI
Protocol: as §3

[8] = target: T5, huFcγRIIa_H167 (human, UniProt P12318 36-218, limits assumed); test: as above
T5 construct: also called huFcγRIIA H167 polymorph
T5 sequence (looked up): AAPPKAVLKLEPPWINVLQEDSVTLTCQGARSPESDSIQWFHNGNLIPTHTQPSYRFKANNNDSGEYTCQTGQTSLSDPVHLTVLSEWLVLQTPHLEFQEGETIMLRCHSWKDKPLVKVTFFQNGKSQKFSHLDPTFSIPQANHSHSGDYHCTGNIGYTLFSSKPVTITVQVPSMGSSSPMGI
Protocol: as §3

[9] = target: T6, huFcγRIIIa_F158 (human, UniProt P08637 17-208); test: as above
T6 construct: Recombinant receptor captured on the SPR chip through anti-His antibodies; also called human FcγRIIIa F158 polymorph; CD16a
Protocol: as §3

[10] = target: T7, huFcγRIIIb (human, UniProt O75015 17-200); test: as above
T7 construct: also called human FcγRIIIb
Protocol: as §3

[11] = target: T1, human GPRC5D (full length, on cells); test: flow cytometry on MM.1R cells, apparent KD, N = 1
Protocol: as §1, §2

[12] = target: T1, human GPRC5D (full length, on cells); test: cell-based or functional assay; remark: listed apart in the source
[13] = target: T1, human GPRC5D (full length, on cells); test: flow cytometry on MM.1R cells, apparent KD, mean
Protocol: as §1, §2

[14] = target: T8, huFcRn (human, UniProt P55899 24-297; P61769 21-119); test: SPR Biacore T200, huFcRn on biotin CAPture, pH 5.9, mean of two; pH 5.9
T8 construct: also called human FcRn
Protocol: as §3

[15] = target: T8, huFcRn; test: SPR Biacore T200, huFcRn on biotin CAPture, pH 5.9, mean of two; pH 5.9; fold change vs BM1 IgG1 wt
[16] = target: T1, human GPRC5D (full length, on cells); test: cell-based or functional assay; remark: listed apart in the source
[17] = target: T1, human GPRC5D (full length, on cells); test: flow cytometry on MM.1R cells, apparent KD, N = 2
Protocol: as §1, §2

[18] = target: T1, human GPRC5D (full length, on cells); test: flow cytometry on MM.1R cells, apparent KD, N = 3
Protocol: as §1, §2

[19] = target: T9, cynomolgus FcγRIIIa expressed on HEK293 T cells (cynomolgus, UniProt Q8SPW2 17-254); test: flow cytometry on HEK293 T cells expressing cyno FcγRIIIa, against BM2 IgG1 wt
T9 construct: whole, on cells; also called cyno FcγRIIIa; cy FcγRIIIa
Protocol: (§4) The antibodies were tested using FACS for their ability to bind cells that express human or cynomolgus FcγRIIIa on their surface. The cell lines used were recombinant stable HEK293 T cells expressing human FcγRIIIa V158 and cynomolgus FcγRIIIa to assess cynomolgus cross-reactivity.
(§5) For dose-response curves, cells were incubated with a serial dilution of the antibodies (from 0.0001 μg/mL to 100 μg/mL) for 1 h at 4° C.
(§6) Analyses were performed with VenturiOne® Software. Cells were first gated in FSC/SSC. From the resulting cell population, single cells and following viable cells were gated. Binding was analyzed as median fluorescence intensity (MFI) of the secondary antibody.

[20] = target: T10, human FcγRIIIa V158 expressed on HEK293 T cells (human, UniProt P08637 17-254); test: flow cytometry on HEK293 T cells expressing human FcγRIIIa V158, against BM2 IgG1 wt
T10 construct: whole, on cells; Cell-surface form, kept apart from the soluble His-captured receptor m11; also called HEK293 T human FcγRIIIa V158; hu FcγRIIIa
Protocol: as §4, §5, §6

[21] = target: T10, human FcγRIIIa V158 expressed on HEK293 …; test: flow cytometry on HEK293 T cells expressing human FcγRIIIa V158, apparent KD, mean of three
Protocol: as §4, §5
(§7) The apparent KD was determined for each molecule by drawing an appropriate non-linear regression curve using the one site-specific binding four parameters model with GraphPad Prism Software (FIG. 1).

[22] = target: T1, human GPRC5D (full length, on cells); test: cell-based or functional assay; remark: listed apart in the source
[23] = target: T9, cynomolgus FcγRIIIa expressed on HEK293 …; test: flow cytometry on HEK293 T cells expressing cyno FcγRIIIa, apparent KD, mean of three
Protocol: as §4, §5, §7

T1 sequence (Q9NZD1 whole entry): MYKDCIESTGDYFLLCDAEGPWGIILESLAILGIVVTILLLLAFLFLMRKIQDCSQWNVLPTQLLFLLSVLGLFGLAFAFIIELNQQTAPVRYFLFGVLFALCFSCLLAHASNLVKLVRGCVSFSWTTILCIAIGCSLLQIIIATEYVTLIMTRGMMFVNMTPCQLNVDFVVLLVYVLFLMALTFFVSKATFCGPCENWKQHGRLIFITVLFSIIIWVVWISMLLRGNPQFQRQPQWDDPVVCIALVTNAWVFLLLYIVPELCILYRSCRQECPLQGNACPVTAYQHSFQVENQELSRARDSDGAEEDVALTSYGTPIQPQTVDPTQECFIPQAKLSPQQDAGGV
T3 sequence (P08637 17-208 F176V limits assumed): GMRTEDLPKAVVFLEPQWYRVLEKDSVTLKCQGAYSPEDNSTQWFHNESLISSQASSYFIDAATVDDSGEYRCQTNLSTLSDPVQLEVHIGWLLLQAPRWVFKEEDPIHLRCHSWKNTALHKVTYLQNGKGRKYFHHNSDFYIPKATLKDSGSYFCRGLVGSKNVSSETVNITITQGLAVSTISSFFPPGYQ
T6 sequence (P08637 17-208 limits assumed): as the sequence (P08637 17-208 F176V limits assumed) above, with V160F counted along it
T10 sequence (P08637 17-254 F176V): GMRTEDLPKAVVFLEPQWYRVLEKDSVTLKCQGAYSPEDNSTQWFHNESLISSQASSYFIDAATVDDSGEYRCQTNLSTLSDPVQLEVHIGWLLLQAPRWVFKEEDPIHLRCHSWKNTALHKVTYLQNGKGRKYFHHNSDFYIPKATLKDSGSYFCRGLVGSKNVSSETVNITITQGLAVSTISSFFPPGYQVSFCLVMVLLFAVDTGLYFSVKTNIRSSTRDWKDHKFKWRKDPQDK
T9 sequence (Q8SPW2 17-254): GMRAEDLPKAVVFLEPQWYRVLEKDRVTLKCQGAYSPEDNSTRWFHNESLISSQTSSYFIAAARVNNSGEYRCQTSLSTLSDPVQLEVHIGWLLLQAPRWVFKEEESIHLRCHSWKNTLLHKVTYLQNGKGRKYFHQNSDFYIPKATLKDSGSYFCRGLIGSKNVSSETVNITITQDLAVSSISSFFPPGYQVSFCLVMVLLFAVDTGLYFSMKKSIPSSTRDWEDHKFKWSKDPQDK
T4 sequence (P12314 16-288 limits assumed): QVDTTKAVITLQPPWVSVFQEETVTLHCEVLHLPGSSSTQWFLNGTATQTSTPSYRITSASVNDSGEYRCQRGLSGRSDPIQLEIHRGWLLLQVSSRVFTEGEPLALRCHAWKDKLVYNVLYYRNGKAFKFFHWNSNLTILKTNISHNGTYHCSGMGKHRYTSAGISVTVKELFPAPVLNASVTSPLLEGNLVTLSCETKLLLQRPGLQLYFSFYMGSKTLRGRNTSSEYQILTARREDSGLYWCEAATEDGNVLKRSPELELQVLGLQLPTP
T8 sequence (P55899 24-297 limits assumed, chain 1 of 2): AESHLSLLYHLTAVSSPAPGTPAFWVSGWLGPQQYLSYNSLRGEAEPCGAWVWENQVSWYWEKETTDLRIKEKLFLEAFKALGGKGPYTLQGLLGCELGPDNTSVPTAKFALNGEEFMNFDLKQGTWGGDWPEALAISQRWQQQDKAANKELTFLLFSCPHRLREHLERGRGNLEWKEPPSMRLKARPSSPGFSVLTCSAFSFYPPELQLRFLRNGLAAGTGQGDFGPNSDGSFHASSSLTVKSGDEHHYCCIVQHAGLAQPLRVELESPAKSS
T8 sequence (P61769 21-119 limits assumed, chain 2 of 2): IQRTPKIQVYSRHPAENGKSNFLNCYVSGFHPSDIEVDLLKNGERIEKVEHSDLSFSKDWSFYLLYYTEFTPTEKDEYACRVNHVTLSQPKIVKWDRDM
T7 sequence (O75015 17-200 limits assumed): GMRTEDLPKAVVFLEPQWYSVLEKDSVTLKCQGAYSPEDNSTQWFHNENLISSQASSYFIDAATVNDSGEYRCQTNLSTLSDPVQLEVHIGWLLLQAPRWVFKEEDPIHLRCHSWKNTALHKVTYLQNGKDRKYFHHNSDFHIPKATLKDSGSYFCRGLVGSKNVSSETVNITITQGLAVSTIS

B1: clone 11 in DE-DSB format (anti-GPRC5D IgG1 with S239D/I332E/R292C/V302C Fc mutations) (antibody)
heavy: EVQLVESGGGLVQPGGSLRLSCAASGFTVSSNYMSWVRQAPGKGLEWVSVIYSGGSTYYADSVKGRFTISRDNSKNTLYLQMNSLRAEDTAVYYCARGFLAFGRYYYGMDVWGQGTTVTVSSASTKGPSVFPLAPSSKSTSGGTAALGCLVKDYFPEPVTVSWNSGALTSGVHTFPAVLQSSGLYSLSSVVTVPSSSLGTQTYICNVNHKPSNTKVDKKVEPKSCDKTHTCPPCPAPELLGGPDVFLFPPKPKDTLMISRTPEVTCVVVDVSHEDPEVKFNWYVDGVEVHNAKTKPCEEQYNSTYRCVSVLTVLHQDWLNGKEYKCKVSNKALPAPEEKTISKAKGQPREPQVYTLPPSRDELTKNQVSLTCLVKGFYPSDIAVEWESNGQPENNYKTTPPVLDSDGSFFLYSKLTVDKSRWQQGNVFSCSVMHEALHNHYTQKSLSLSPG
light: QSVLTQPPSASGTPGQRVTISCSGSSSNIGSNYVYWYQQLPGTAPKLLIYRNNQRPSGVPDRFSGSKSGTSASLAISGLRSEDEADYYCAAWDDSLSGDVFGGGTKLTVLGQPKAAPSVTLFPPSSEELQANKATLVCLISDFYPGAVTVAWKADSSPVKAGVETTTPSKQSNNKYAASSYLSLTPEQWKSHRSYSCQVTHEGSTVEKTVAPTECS
notes: human IgG1, lambda light chain; also called 11-DE-DSB; 11 DE-DSB
[1]
  EC50 (read off the curve): ~0.02 nM
[2]
  binding result: no binding (tested: 0.6 nM to 2000 nM)
[3]
  EC50rel geometric mean, ADCP by macrophages against MM.1R cells (n = 5): 0.0359 µg/mL
[4]
  relEC50 Median, ADCC (calcein release) against MM.1R cells with NK cells: 6 ng/ml and 40.1 pM
[5]
  Fold change vs BM1 IgG1 wt: 4 fold
  Kd: 12.2 nM
  NormB: 38
[6]
  NormB: 2
[7]
  Fold change vs BM1 IgG1 wt: 2 fold
  Kd: 0.499 nM
[8]
  Fold change vs BM1 IgG1 wt: 1 fold
  Kd: 2580 nM
  NormB: 15
[9]
  Fold change vs BM1 IgG1 wt: 10 fold
  Kd: 22.7 nM
  NormB: 45
[10]
  Fold change vs BM1 IgG1 wt: 34 fold
  Kd: 52.9 nM
[11]
  Kd: 0.036 nM
[12]
  relEC50 median, ADCC over four days (Incucyte) against MM.1R cells with NK cells: 0.87 ng/ml and 6 pM
[13]
  Kd: 0.024 nM
[14]
  Kd: 982 nM
[15]
  Fold change vs BM1 IgG1 wt: 1 fold
[16]
  EC50 geometric mean, ADCP by macrophages against MM.1R cells (n = 5): 0.248 nM
  EC50rel, ADCP by macrophages against MM.1R cells, Donor1: 0.297 nM
  EC50rel, ADCP by macrophages against MM.1R cells, Donor3: 0.303 nM
  EC50rel, ADCP by macrophages against MM.1R cells, Donor4: 0.517 nM
  EC50rel, ADCP by macrophages against MM.1R cells, Donor5: 0.0528 nM
[17]
  Kd: 0.018 nM
[18]
  Kd: 0.019 nM
[19]
  Fold change vs IgG1 wt: 26 fold
[20]
  Fold change vs IgG1 wt: 28 fold
[21]
  Kd: 1.22 nM
[22]
  relEC50 Median, ADCC (calcein release) against EJM cells with NK cells: 259 pM and 37.5 ng/ml
[23]
  Kd: 1.4 nM
